Laboratory results from patent US20210171647A1 (WUXI BIOLOGICS SHANGHAI, published 2021).

Key:
Test in all cases: ELISA, antibody coated, OX40-ECD.His mutant supernatant; relative to silent alanine substitutions;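 also: captured OX40 mutant protein detected with HRP-labelled anti-His antibody, absorbance read-out, scaled to the mean signal of control mutants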
human OX40-ECD.His Y119A = target: T1, human OX40-ECD.His Y119A (human, UniProt P43489 29-214)
T1 construct: extracellular domain; not shown: C-terminal His-tag
T1 sequence (looked up): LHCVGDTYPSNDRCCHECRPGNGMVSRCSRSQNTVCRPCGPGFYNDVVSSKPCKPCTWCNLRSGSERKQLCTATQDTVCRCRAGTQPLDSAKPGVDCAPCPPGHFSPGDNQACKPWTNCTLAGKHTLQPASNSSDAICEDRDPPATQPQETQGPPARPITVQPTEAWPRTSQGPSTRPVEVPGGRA

human OX40-ECD.His S162A = target: T2, human OX40-ECD.His S162A (human, UniProt P43489 29-214)
T2 construct: extracellular domain; not shown: C-terminal His-tag
T2 sequence (looked up): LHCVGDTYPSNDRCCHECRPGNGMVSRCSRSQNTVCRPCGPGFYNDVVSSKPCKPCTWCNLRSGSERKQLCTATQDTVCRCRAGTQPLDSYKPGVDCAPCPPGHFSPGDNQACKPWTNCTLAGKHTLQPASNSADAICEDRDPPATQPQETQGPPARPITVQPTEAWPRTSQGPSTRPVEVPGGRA

human OX40-ECD.His R90A = target: T3, human OX40-ECD.His R90A (human, UniProt P43489 29-214)
T3 construct: extracellular domain; not shown: C-terminal His-tag
T3 sequence (looked up): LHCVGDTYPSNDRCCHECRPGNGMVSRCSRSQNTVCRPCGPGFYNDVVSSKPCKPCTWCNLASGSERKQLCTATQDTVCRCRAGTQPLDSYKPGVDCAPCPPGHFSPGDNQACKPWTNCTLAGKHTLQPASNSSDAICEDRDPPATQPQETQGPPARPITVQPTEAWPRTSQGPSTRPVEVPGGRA

human OX40-ECD.His V76A = target: T4, human OX40-ECD.His V76A (human, UniProt P43489 29-214)
T4 construct: extracellular domain; not shown: C-terminal His-tag
T4 sequence (looked up): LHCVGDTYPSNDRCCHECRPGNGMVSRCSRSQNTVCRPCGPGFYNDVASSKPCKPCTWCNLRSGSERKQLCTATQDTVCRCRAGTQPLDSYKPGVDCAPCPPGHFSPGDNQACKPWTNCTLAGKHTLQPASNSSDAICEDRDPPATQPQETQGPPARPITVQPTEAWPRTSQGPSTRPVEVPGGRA

human OX40-ECD.His T100A = target: T5, human OX40-ECD.His T100A (human, UniProt P43489 29-214)
T5 construct: extracellular domain; not shown: C-terminal His-tag
T5 sequence (looked up): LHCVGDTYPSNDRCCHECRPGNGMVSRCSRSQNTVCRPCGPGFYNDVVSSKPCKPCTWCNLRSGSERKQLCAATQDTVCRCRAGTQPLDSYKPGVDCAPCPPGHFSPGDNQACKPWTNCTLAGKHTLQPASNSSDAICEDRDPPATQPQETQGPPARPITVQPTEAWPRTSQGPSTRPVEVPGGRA

human OX40-ECD.His T105A = target: T6, human OX40-ECD.His T105A (human, UniProt P43489 29-214)
T6 construct: extracellular domain; not shown: C-terminal His-tag
T6 sequence (looked up): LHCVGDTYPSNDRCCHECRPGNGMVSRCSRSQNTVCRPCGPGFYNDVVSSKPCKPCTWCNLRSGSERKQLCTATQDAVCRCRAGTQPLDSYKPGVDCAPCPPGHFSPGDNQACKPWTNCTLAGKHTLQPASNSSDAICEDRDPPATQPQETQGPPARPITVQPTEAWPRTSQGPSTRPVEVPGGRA

human OX40-ECD.His T102A = target: T7, human OX40-ECD.His T102A (human, UniProt P43489 29-214)
T7 construct: extracellular domain; not shown: C-terminal His-tag
T7 sequence (looked up): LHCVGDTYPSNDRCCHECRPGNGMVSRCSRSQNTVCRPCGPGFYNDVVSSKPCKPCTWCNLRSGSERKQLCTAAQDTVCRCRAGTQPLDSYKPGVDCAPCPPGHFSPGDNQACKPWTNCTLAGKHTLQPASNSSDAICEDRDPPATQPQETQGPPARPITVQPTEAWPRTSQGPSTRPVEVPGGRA

human OX40-ECD.His D117A = target: T8, human OX40-ECD.His D117A (human, UniProt P43489 29-214)
T8 construct: extracellular domain; not shown: C-terminal His-tag
T8 sequence (looked up): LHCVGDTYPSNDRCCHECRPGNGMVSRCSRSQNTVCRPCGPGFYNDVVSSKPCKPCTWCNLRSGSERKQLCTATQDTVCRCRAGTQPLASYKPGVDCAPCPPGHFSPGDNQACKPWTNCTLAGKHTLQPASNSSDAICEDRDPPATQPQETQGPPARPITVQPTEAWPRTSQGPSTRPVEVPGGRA

human OX40-ECD.His P127A = target: T9, human OX40-ECD.His P127A (human, UniProt P43489 29-214)
T9 construct: extracellular domain; not shown: C-terminal His-tag
T9 sequence (looked up): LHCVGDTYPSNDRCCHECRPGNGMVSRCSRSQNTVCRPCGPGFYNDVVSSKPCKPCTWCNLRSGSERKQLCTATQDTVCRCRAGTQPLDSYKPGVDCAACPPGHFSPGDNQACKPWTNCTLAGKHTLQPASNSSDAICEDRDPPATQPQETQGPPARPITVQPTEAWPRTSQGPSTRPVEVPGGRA

human OX40-ECD.His R41A = target: T10, human OX40-ECD.His R41A (human, UniProt P43489 29-214)
T10 construct: extracellular domain; not shown: C-terminal His-tag
T10 sequence (looked up): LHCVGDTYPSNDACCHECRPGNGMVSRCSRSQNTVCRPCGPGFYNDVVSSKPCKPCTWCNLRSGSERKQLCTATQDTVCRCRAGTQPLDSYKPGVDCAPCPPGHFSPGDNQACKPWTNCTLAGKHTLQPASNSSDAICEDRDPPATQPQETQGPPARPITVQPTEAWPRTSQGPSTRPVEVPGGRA

Fold Change (human OX40-ECD.His Y119A): 0.995 | Fold Change (human OX40-ECD.His S162A): 0.998 | Fold Change (human OX40-ECD.His R90A): 1.01 | Fold Change (human OX40-ECD.His V76A): 1.02 | Fold Change (human OX40-ECD.His T100A): 0.557 | Fold Change (human OX40-ECD.His T105A): 0.787 | Fold Change (human OX40-ECD.His T102A): 0.94 | Fold Change (human OX40-ECD.His D117A): 0.951 | Fold Change (human OX40-ECD.His P127A): 0.953 | Fold Change (human OX40-ECD.His R41A): 0.958
B1: 1.134.9-u1-IgG1L (antibody, V domains shown)
VH: QVQLQESGPGLVKPSGTLSLTCAVSGGSISSYNWWSWVRQPPGKGLEWIGEIYHGGNTNYNPSLKSRVTMSVDNSKNQFSLKLSSVTAADTAVYYCARAPGDWGGSPYFDFWGQGTLVTVSS
VL: SSELTQDPAVSVALGQTVRITCQGDNLRTYYASWYQQKPGQAPILLIYGRNKRPSGIPDRFSGSSSGNTASLTITGAQAEDEAAYYCNSRDSSGNPVVFGGGTKLTVL
notes: fully human IgG1, lambda
